From the supplement of paper PMC10567573

B1: NETO1 (parent)
chain: KTSLLDQLTNTSGTVIGVTSCIVI
B2: TRIM29 (parent)
chain: RKCPVHGKTMELFCQTDQTCICYL

Variants of: B1
Experiment: protein stability index of a GFP-peptide fusion (GPS, HEK-293T) (PSI 1-6); higher = more stable
Settings: c terminus: a fixed tail appended
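Also: lentivirally expressed fusions sorted by FACS into six bins by GFP to DsRed ratio, PSI derived from sequencing read proportions per bin multiplied by bin number.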

Protein stability index: each site, then its substitutions
L4: N 2.6 | A 2.65 | P 2.67 | H 3.14 | C 2.08 | F 2.99 | R 2.34 | E 2.94 | Q 3.64 | M 2.19 | S 1.85 | K 2.57 | W 3.2 | V 3.28 | G 4.07 | Y 2.83 | T 3.56 | D 2.7 | I 4.14
S3: A 3.59 | I 3.45 | V 2.39 | K 2.88 | L 2.17 | P 2.58 | E 2.86 | G 1.92 | Y 3.56 | C 3.27 | T 2.61 | M 3.37 | F 2.59 | W 2.56 | H 2.43 | Q 3.04 | D 2.46 | N 2.57 | R 3.26
T2: A 3.1 | C 1.93 | Y 3.38 | G 3.08 | S 2.57 | N 2.4 | P 3.5 | M 2.76 | Q 2.94 | R 3.11 | V 2.68 | L 2.58 | K 2.64 | W 2.31 | D 3.94 | H 2.98 | I 3.34 | F 3.71 | E 2.12
K1: F 3.08 | P 3.02 | Q 2.81 | S 3 | N 2.53 | I 2.82 | L 2.67 | M 3.4 | E 3.07 | H 2.11 | W 3.48 | Y 2.37 | R 1.61 | G 2.6
D6: C 4.27 | H 3.23 | K 1.98 | A 3.62 | G 2.31 | I 3.8 | F 2.58 | E 3.74
L5: K 2.78 | P 2.45 | G 2.97 | M 3.86 | R 3.13 | I 2.8 | D 2.98 | H 2.21 | A 3.63 | E 2.98 | S 3.07 | Q 3.37 | Y 2.3 | F 2.32 | W 3.45 | V 2.59 | C 2.32 | N 3.16

Variants of: B2
Experiment: as above
Settings: c terminus: a fixed tail appended

Protein stability index: each site, then its substitutions
C14: D 2.1 | G 1.86 | M 1.46 | N 2.33 | Q 2.03 | L 2.27 | V 1.47 | R 2.5 | Y 2.59 | E 2.77 | F 3.17 | S 2.35 | W 1.89 | K 1.89 | I 2.41 | P 2 | T 3.06 | A 2.5 | H 2.83
T19: F 1.88 | K 2.44 | D 1.6 | G 2.42 | L 1.59 | A 3.62 | I 3.16 | M 2.51 | V 1.31 | N 2.16 | Y 1.89 | P 2.35 | Q 2.32 | C 2.66 | H 2.95 | E 2.4 | W 2.47 | S 2.63
C20: H 3.04 | L 2.28 | D 3.16 | G 3.31 | W 2.42 | I 1.25 | S 2.56 | N 3.24 | Q 3.07 | K 3.17 | R 2.38 | Y 2.78 | M 3.2 | V 1.27 | A 3.08 | P 1.83
I21: Q 3.36 | R 1.88 | C 3.49 | M 2.36 | P 2.44 | Y 3.25 | F 2.86 | W 2.78 | L 1.73 | A 2.77 | N 2.52 | K 2.02 | E 4.47 | D 4.33 | G 3.1 | H 2.98 | S 1.91 | T 3 | V 1.92
D17: T 1.76 | R 2.8 | A 2.19 | F 1.49 | P 2.04 | M 1.93 | Q 1.66 | K 1.52 | S 1.49 | Y 2.92 | N 1.7 | L 3.97 | E 3.12 | H 1.89 | I 1.79 | C 2.08 | G 2.73
C22: D 2.38 | Y 1.45 | W 1.23 | G 1.99 | V 2.9 | H 2.01 | R 1.99 | P 2.27 | I 2.81 | M 2.37 | T 2.16 | F 1.31 | K 2.04 | E 2.58 | N 1.67 | Q 2.02 | S 2.46 | A 1.87 | L 3.09
T16: N 2.62 | I 1.98 | Y 2.54 | M 1.57 | G 3.39 | E 1.78 | V 2.6 | P 2.06 | C 3.37 | H 2.44 | L 1.56 | R 1.91 | F 2.51 | S 2.34 | Q 2.91 | D 2.1 | A 2.24 | K 2.15 | W 2.17
Q18: K 3.94 | D 1.79 | L 2.11 | H 2.18 | V 2.65 | W 1.56 | C 2.22 | Y 1.42 | G 2.79 | T 2.36 | A 1.73 | S 1.68 | F 2.71 | R 1.97 | E 2.75 | N 1.82 | M 2.12 | P 2.7
Q15: Y 1.92 | L 3.21 | M 2.43 | R 1.78 | S 2.48 | E 1.56 | F 3.06 | G 2.93 | D 1.52 | C 3.22 | V 2.75 | H 2.26 | I 1.88 | N 2 | K 1.79 | A 2.75 | T 2.14 | P 2.66
L12: K 1.46 | T 1.58 | C 2.81 | E 1.53 | M 2.98 | H 2.66 | V 2.87 | P 2.08 | Y 2.86 | D 2.81 | F 1.61 | R 1.99 | A 2.21 | S 2.65 | N 1.99 | G 1.68 | I 2.47 | W 1.08
E11: Y 1.8
L24: S 5.39 | I 4.21 | Q 5.07 | T 5.36 | R 4.89 | K 4.82 | H 4.59 | G 5.15 | N 4.57 | E 4.75 | W 4.47 | C 4.74 | Y 3.86 | M 4.34 | A 5.02 | D 5.58 | V 4.34 | F 4.64 | P 5.26
Y23: A 4.28 | F 1.65 | C 4.73 | D 5.55 | E 5.25 | I 2.73 | H 4.24 | V 2.66 | P 5.16 | G 4.98 | Q 4.28 | K 4.52 | M 3.38 | S 4.29 | L 2.58 | T 4.17 | N 4.91 | R 3.95 | W 1.59
F13: T 2.38 | R 1.96 | P 2.4 | M 3.16 | V 2.58 | L 2.04 | Q 3.27 | C 2.23 | H 2.5 | Y 2.32 | S 2.5 | E 2.47 | G 2.93 | A 1.78 | N 2.72 | I 2.89 | K 2.99
